The experiment deals with ALFA peptide and His8-tagged ZAC orthologue from Oryzias latipes (OlZAC) (Oryzias latipes). In words: negative staining EM with 2D classification; purified OlZAC reconstituted into NAPol amphipol, stained with 2% uranyl acetate, Talos L120C at 120 kV, 2D classification in RELION 3.0.

These results are taken from paper PMC7979870.

The term stoichiometry N denotes the number of molecules, sites or subunits per partner or assembly. In turn, “ALFA peptide and His8-tagged ZAC orthologue from Oryzias latipes (OlZAC) (receptor)” displayed a stoichiometry N of 5.
